Target: T1, cynomolgous CD3 on the cynomolgous T-cell line HSC-F (cynomolgus, UniProt Q95LI8 22-171; Q95LI7 23-181)
T1 chain: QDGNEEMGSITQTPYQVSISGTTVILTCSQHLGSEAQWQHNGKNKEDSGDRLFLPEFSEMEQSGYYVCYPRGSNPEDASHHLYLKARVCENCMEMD
Test: FACS binding

- EC50: 3.54 µg/mL
B1: bsIgG1 huCD3-H3L1×HER2-LFLEDA (bispecific antibody)
heavy 1: EVKLVESGGGLVKPGRSLRLSCAASGFTFNTYAMNWVRQAPGKGLEWVARIRSKYNNYATYYADSVKDRFTISRDDSKSILYLQMNSLKTEDTAMYYCVRHGNFGNSYVSWFAYWGQGTLVTVSS
VL 1: not shown
heavy 2: QVQLVQSGAEVKKPGASVKVSCKASGYTFTNYGISWVRQAPGQGLEWMGWLSAYSGNTIYAQKLQGRVTMTTDTSTTTAYMELRSLRSDDTAVYYCARDRIVVRPDYFDYWGQGTLVTVSS
VL 2: EIVLTQSPATLSLSPGERATLSCRASQSVSSYLAWYQQKPGQAPRLLIYDASNRATGIPARFSGSGSGTDFTLTISSLEPEDFAVYYCQQRSNWPRTFGQGTKVEIK
